Numbering of substitutions follows the chain as printed. Names and notes keep the numbering of the source. “Also recorded” adds a separate entry of the source.
B1: PylRS A1: M. mazei PylRS mutant L309M, C348G, I405R without Y306A/Y384F (SEQ ID NO: 70) (protein)
chain: MDKKPLNTLISATGLWMSRTGTIHKIKHHEVSRSKIYIEMACGDHLVVNNSRSSRTARALRHHKYRKTCKRCRVSDEDLNKFLTKANEDQTSVKVKVVSAPTRTKKAMPKSVARAPKPLENTEAAQAQPSGSKFSPAIPVSTQESVSVPASVSTSISSISTGATASALVKGNTNPITSMSAPVQASAPALTKSQTDRLEVLLNPKDEISLNSGKPFRELESELLSRRKKDLQQIYAEERENYLGKLEREITRFFVDRGFLEIKSPILIPLEYIERMGIDNDTELSKQIFRVDKNFCLRPMLAPNLYNYMRKLDRALPDPIKIFEIGPCYRKESDGKEHLEEFTMLNFGQMGSGCTRENLESIITDFLNHLGIDFKIVGDSCMVYGDTLDVMHGDLELSSAVVGPRPLDREWGIDKPWIGAGFGLERLLKVKHDFKNIKRAARSESYYNGISTNL
B2: PylRS AF A1: PylRS AF variant with 309M, 348G, 405R (SEQ ID NO: 108) (protein)
chain: B1 chain with Y306A, Y384F
B3: PylRS MMA: M. mazei PylRS mutant Y306M, L309M, C348A (SEQ ID NO: 72) (protein)
chain: B1 chain with Y306M, G348A, R405I

Assays:
[1] = test system: iRFP-EGFP^Y39TAG reporter in HEK293T cells; test: FFC test of importance of Y306A and Y384F for incorporation of bulky ncAAs, Example 3; type: cell-based
Method: These new PylRS variants as obtained from example 1 were tested in HEK293T cells utilizing a fluorescent reporter by fluorescent flow cytometry (FFC). The reporter contains an infrared fluorescent protein (iRFP) fused to enhanced green fluorescent protein (EGFP) which harbors an amber stop codon at position Y39 and is called iRFP-EGFP^Y39TAG. To analyze the incorporation efficiency for each new PylRS variant, transient transfection with different ncAAs and different amounts of ncAAs were performed.
The iRFP and EGFP signals were measured after 24 hours post transfection. Therefore, HEK293T cells were seeded in 24-well plate 16 hours prior to transfection. For the two-plasmid transfection, 1 μg of total DNA was used per well. The DNA was mixed with 50 μl of DMEM medium without Phenol Red and 3 μl of PEI were added. After 10 seconds of vortexing and a short centrifugation step, the DNA mixture was incubated 15 minutes in the hood, before it was added dropwise to the well. A master mix was prepared for all wells whenever suitable. After four hours of incubation, the medium was aspirated and fresh medium with different concentrations of ncAAs was added. The concentration of ncAA was 250 μM. After 20 hours of incubation, the iRFP and EGFP signal was analyzed with a flow cytometer analyzer (LSRFortessa™, BD Biosciences). Stock solutions for all ncAAs were prepared as described previously (Nikic, I., Kang, J. H., Girona, G. E., Aramburu, I. V. & Lemke, E. A. Labeling proteins on live mammalian cells using click chemistry. Nat. Protoc. 10, 780-791 (2015)).
To test, if the mutations Y306A and Y384F are really important for the incorporation of bulky ncAAs, these amino acids were changed back to their original amino acid residues by site directed mutagenesis in the case of the PylRS AF A1 variant.
The FFC test was with TCO*A, TCO-E and in addition with Boc using the variants PylRS A1, PylRS AF, PylRS AF A1 and PylRS MMA. PylRS MMA has the mutations 306M 309M 348A. FIG. 3 illustrates the data obtained by FFC in bar plots for the different ncAAs used. […] These bar plot illustrates on how much higher the incorporation efficiency is for each variant compared to PylRS AF.

[2] = test system: iRFP-EGFP^Y39TAG reporter in HEK293T cells; test: Incorporation assay for cyclooctyne-lysine (SCO) by FFC, Example 4; type: cell-based; conditions: ncAA SCO, 15.625 μM to 500 μM, FIG. 5
Method: To test the incorporation efficiency of another ncAA by the new variant PylRS A1, an incorporation assay was performed utilizing HEK293T cells. The cells were co-transfected with a plasmid containing NES-PylRS A1 containing as well the corresponding tRNA^Pyl gene together with the reporter plasmid pCI-iRFP-EGFP^Y39TAG-6His (SEQ ID NO: 97). Different concentrations of SCO were added to the growth medium 4 hours after the transfection of the cells ranging from 15.625 μM to 500 μM SCO. After 20 hours of incubation, the iRFP and EGFP signal was analyzed with a flow cytometer analyzer (LSRFortessa™, BD Biosciences) as mentioned above.

Molecule | ability to incorporate bulky ncAAs ([1]; TCO*A, TCO-E, Boc, HEK293T) | incorporation efficiency relative to PylRS AF ([1]; ncAA Boc) | incorporation efficiency (mean GFP/mean iRFP), ranking among variants ([1]; ncAA Boc, FIG. 3C) | incorporation efficiency (mean GFP/mean iRFP), ranking among variants ([1]; ncAA TCO*A, FIG. 3B) | incorporation efficiency relative to PylRS AF ([1]; ncAA TCO*A, independent of the ncAA concentration used) [×] | incorporation efficiency (mean GFP/mean iRFP), ranking among variants ([1]; ncAA TCO-E, FIG. 3A) | incorporation efficiency relative to PylRS AF ([1]; ncAA TCO-E, depending on the concentration used) | incorporation of SCO (EGFP signal by FFC) [2] | incorporation efficiency relative to PylRS AF ([1]; ncAA TCO-E)
B1 | better synthetase for bulky ncAAs; also recorded: able to incorporate bulky ncAAs | up to 4.5 × | highest incorporation efficiency | best incorporation | 1.2 | highest incorporation efficiency | up to 30 times | can incorporate SCO efficiently | –
B2 | – | – | – | – | – | highest incorporation efficiency | – | – | –
B3 | – | – | – | – | – | – | – | – | up to 10 ×
